Changes are numbered by the printed parent chain. Names may count otherwise.
B1: PR000506 (antibody, human IgG1, kappa, L234A L235A, V domains shown)
VH: QVQLVESGGGVAQPGRSLSLSCAASGFTFSDYGMHWVRQAPGKGLEWVALIWYDGSFEYYADSVKGRFSISRDNSKNTLYLQMNSLRAEDTAVYYCVRDGQWGSRLDYWGQGTLVTVSS
VL: KIVMTQSPATLSLSPGERATLSCRASQSVSRYLAWYQQKPGQAPRLLIYDASNRATGIPARFSGSGSGTDFTLTISSLEPEDFAVYYCQQRSNWIFTFGPGTKVDIKR
notes: Recombinant antibody from hybridoma clone 38H6; also called 38H6E5 (clone name)
B2: PR000849 (antibody, human IgG1, kappa, L234A L235A, V domains shown)
VH: B1 VH with G55A, D99E
VL: B1 VL with K1E, M4L
notes: PTM-removal variant of PR000851 (heavy chain G55A, D99E)
B3: PR000844 (antibody, human IgG1, kappa, L234A L235A, V domains shown)
VH: B1 VH with D54E, G100A
VL: B1 VL
notes: PTM-removal variant of PR000506 (heavy chain D54E, G100A)
B4: Tab1 (antibody, human IgG1, lambda, V domains shown)
VH: EVQLLESGGGLVQPGGSLRLSCAASGFTFSSYAYSWVRQAPGKGLEWVSAISGSGGRTYYADSVKGRFTISRDNSKNTLYLQMNSLRAEDTAVYYCARLGYGRVDEWGRGTLVTVSS
VL: QSVLTQPPSASGTPGQRVTISCSGSLSNIGRNPVNWYQQLPGTAPKLLIYLDNLRLSGVPDRFSGSKSGTSASLAISGLQSEDEADYYCATWDDSHPGWTFGGGTKLTVLG
notes: also called PR002078; MEDI9447(TAB1)

Target: T1, Cynomolgus monkey CD73 on HEK293-cynoCD73 stable cell line (cynomolgus monkey)
T1 construct: whole, on cells
Experiment: flow cytometry on HEK293-cynoCD73 stable cells
Procedure: Binding of antibodies to hCD73 and cynoCD73 expression in stable cell line was characterized by Flow cytometry. The cells were incubated with various concentration antibodies (the top concentration was 50 nM, 8 points, dilution factor 3), then incubate for 1 h at 4° C. Wash two times by PBS, then add the secondary antibody Goat anti-human(H+L) (Thermo fisher, A11013), incubate for 30 min at 4° C. And the fluorescence intensity was read by FACS Machine (BD FACS CantoII). A plot of median fluorescence intensity and the binding EC50 were fitted and calculated by GraphPad Prism 5.

| Binder | EC50 [nM] |
| --- | --- |
| B1 | 0.323 |
| B2 | 0.515 |
| B3 | 0.475 |
| B4 | 0.623 |

Reference: patent US20230357425A1 (HARBOUR BIOMED SHANGHAI, published 2023)
